Here are results for seven molecules from paper PMC5907806 (Nature, 2017).

Positions count from the first letter of the chain named. Like-named read-outs stand apart in the source and are kept apart here.

The target of data set [1] is T1, RNA polymerase II (12-subunit);Rad26 (Saccharomyces cerevisiae;Saccharomyces …, UniProt P04050;P08518;P16370;P20433;P20434;P20435;P34087;P20436;P27999;P22139;P38902;P40 …, |). Briefly: EMSA. For orientation: Mobility shift assays separate free from complexed probe on a gel.
Data set [2] addresses T1, RNA polymerase II (12-subunit);Rad26. Briefly: EMSA. This is another data set of the same source.
Data set [3] has the same target. In words: EMSA. This is another data set of the same source.
Data set [4] shares this target. In words: EMSA. This is another data set of the same source.
For data set [5] the target is unchanged. In words: EMSA. The source holds these as a separate data set.
For data set [6] the target is unchanged. Briefly: EMSA. This is another data set of the same source.
The target of data set [7] is Rpb2 subunit of S. cerevisiae RNA polymerase II (S. cerevisiae, UniProt P08518 1-1224). Briefly: cryo-EM structure.
Rpb2 subunit of S. cerevisiae RNA polymerase II, sequence (P08518 whole entry): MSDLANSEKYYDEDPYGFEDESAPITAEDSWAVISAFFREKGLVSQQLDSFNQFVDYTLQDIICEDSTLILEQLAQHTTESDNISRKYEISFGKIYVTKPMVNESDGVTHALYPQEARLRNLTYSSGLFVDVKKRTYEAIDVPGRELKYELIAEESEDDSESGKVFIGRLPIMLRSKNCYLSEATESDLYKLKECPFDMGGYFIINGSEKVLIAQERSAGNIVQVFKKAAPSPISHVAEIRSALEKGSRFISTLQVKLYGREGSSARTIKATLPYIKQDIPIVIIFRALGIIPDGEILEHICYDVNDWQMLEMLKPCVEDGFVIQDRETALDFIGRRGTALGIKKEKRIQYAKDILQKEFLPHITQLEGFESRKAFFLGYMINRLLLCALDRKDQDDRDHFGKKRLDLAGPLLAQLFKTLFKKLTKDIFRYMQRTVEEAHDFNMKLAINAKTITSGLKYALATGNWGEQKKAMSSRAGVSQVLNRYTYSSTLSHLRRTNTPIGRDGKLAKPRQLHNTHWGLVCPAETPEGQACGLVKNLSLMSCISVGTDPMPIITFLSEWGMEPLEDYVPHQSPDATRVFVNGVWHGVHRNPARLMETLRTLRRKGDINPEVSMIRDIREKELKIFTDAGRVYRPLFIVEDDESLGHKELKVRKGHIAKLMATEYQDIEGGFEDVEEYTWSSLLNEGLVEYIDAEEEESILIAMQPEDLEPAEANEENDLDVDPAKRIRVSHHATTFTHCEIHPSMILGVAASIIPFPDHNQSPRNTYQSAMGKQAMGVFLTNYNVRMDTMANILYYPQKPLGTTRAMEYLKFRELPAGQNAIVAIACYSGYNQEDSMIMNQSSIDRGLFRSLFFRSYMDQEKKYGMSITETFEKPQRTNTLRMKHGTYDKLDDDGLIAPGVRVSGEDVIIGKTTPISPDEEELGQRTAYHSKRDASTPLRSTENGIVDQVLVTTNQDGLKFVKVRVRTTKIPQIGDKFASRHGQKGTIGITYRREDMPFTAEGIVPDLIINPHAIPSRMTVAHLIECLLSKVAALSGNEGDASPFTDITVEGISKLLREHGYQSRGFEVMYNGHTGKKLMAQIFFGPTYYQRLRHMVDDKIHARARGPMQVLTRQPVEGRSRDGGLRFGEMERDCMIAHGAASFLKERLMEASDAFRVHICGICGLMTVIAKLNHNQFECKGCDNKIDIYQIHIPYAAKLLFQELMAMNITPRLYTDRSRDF

B1: non-damaged TT scaffold (mixed)
DNA 1: CGAGCAGATCTCATAGCCCATTCCTACTAAGGAGAAGGAGCAGAGCG
DNA 2: CGCTCTGCTCCTTCTCCTTTCCTCTCGATGGCTATGAGATCTGCTCG
RNA: AUCGAGAGGA
On to B1, for which the binding result in data set [1] is reported as “binds”.

B2: CPD lesion scaffold (mixed)
DNA 1: B1 DNA 1
DNA 2: B1 DNA 2
RNA: AUCGAGAGGA
modifications: CPD at TT of TS (nt 18-19)
For B2, the binding result in data set [2] is given as “binds”.

B3: 3+10 bubble scaffold (mixed)
DNA 1: B1 DNA 1 with G16T, C17T, C18T, A29T, A30G
DNA 2: B1 DNA 2 with T18C, T19A
RNA: AUCGAGAGGA
Consider B3, for which the binding result in data set [3] is given as “binds”.

B4: 3+10+3 bubble scaffold (mixed)
DNA 1: B1 DNA 1 with G16T, C17T, C18T, A29C, G31T
DNA 2: B1 DNA 2 with T18C, T19A
RNA: AUCGAGAGGA
As to B4, in data set [4], the binding result was “binds”.

B5: AT-rich upstream fork scaffold (mixed)
DNA 1: B1 DNA 1 with G16T, C17T, C18T, A29T, A30G
DNA 2: B1 DNA 2 with T18C, T19A, G30A, G31A, C32A
RNA: AUCGAGAGGA
As for B5, the binding result in data set [5] is “binds”.

B6: 10+3 bubble scaffold (mixed)
DNA 1: B1 DNA 1 with A29C, G31T
DNA 2: B1 DNA 2 with T18C, T19A
RNA: AUCGAGAGGA
As to B6, in data set [6], the binding result is “binds”.

B7: Saccharomyces cerevisiae Rad26 (natural protein, S. cerevisiae, UniProt P40352 1-1085, looked up)
chain: MEDKEQQDNAKLENNESLKDLGVNVLSQSSLEEKIANDVTNFSNLQSLQQEETRLERSKTALQRYVNKKNHLTRKLNNTTRISVKQNLRDQIKNLQSDDIERVLKDIDDIQSRIKELKEQVDQGAENKGSKEGLQRPGETEKEFLIRTGKITAFGHKAGFSLDTANREYAKNDEQKDEDFEMATEQMVENLTDEDDNLSDQDYQMSGKESEDDEEEENDDKILKELEDLRFRGQPGEAKDDGDELYYQERLKKWVKQRSCGSQRSSDLPEWRRPHPNIPDAKLNSQFKIPGEIYSLLFNYQKTCVQWLYELYQQNCGGIIGDEMGLGKTIQVIAFIAALHHSGLLTGPVLIVCPATVMKQWCNEFQHWWPPLRTVILHSMGSGMASDQKFKMDENDLENLIMNSKPSDFSYEDWKNSTRTKKALESSYHLDKLIDKVVTDGHILITTYVGLRIHSDKLLKVKWQYAVLDEGHKIRNPDSEISLTCKKLKTHNRIILSGTPIQNNLTELWSLFDFIFPGKLGTLPVFQQQFVIPINIGGYANATNIQVQTGYKCAVALRDLISPYLLRRVKADVAKDLPQKKEMVLFCKLTKYQRSKYLEFLHSSDLNQIQNGKRNVLFGIDILRKICNHPDLLDRDTKRHNPDYGDPKRSGKMQVVKQLLLLWHKQGYKALLFTQSRQMLDILEEFISTKDPDLSHLNYLRMDGTTNIKGRQSLVDRFNNESFDVFLLTTRVGGLGVNLTGANRIIIFDPDWNPSTDMQARERAWRIGQKREVSIYRLMVGGSIEEKIYHRQIFKQFLTNRILTDPKQKRFFKIHELHDLFSLGGENGYSTEELNEEVQKHTENLKNSKSEESDDFEQLVNLSGVSKLESFYNGKEKKENSKTEDDRLIEGLLGGESNLETVMSHDSVVNSHAGSSSSNIITKEASRVAIEAVNALRKSRKKITKQYEIGTPTWTGRFGKAGKIRKRDPLKNKLTGSAAILGNITKSQKEASKEARQENYDDGITFARSKEINSNTKTLENIRAYLQKQNNFFSSSVSILNSIGVSLSDKEDVIKVRALLKTIAQFDKERKGWVLDEEFRNNNAS
Regarding B7, in data set [7], the binding result is listed as “binds”.
